Measurements taken from US20230391854A1 (Innovent, published 2023).

Target: nCoV S (ACRO, SPN-C52H4) (SARS-CoV-2, UniProt P0DTC2 16-1213)

B1: P14-44 (antibody, V domains shown)
VH: QVQLVQSGAEVKKPGASVKVSCKASGYIFTSYSMHWVRQAPGQGLEWMGTIKPSDDSTNYAQKFQGRVSMTRDTSTSTVYMELSSLRYEDTAVYYCAREARGYYDRSGYYHPGYFDYWGQGTLVTVSS
VL: QSVLTQPASVSGSPGQSITISCTGTSSDVGGYNFVSWYQQHPGKAPKLMIYEVSDRPSGVSSRFSGSKSGNTASLTISGLQAEDEADYYCFSYTTSTTWVFGGGTKLTVL
notes: also called candidate antibody molecule P14-44
- EC50: 0.0213 nM

B2: P23-29 (antibody, V domains shown)
VH: QVQLQESGPGLVKPSETLSLTCTVSGDSISSSTYYWGWIRQPPGKGLEWIGSMYYGRSTYYNPSLKSRVTVSVDTSKNQLSLKVSSVTAADTAVYYCARHLGGVDYWGQGTLVTVSS
VL: DIQMTQSPSSLSASVGDRVTITCRASQGISNSLAWYQQEPGKAPKLLLYAASTLESGVPSRFSGSGSGADSTLTISSLQPEDFATYYCQQYYSASALTFGGGTKVEIK
notes: also called candidate antibody molecule P23-29
- EC50: 0.0364 nM

B3: P3-11 (antibody, V domains shown)
VH: QVQLVESGGGLVQPGGSLRLSCAASGITVSSNYMSWVRQAPGKGLEWVSVIYSGGSTFYADPVKGRLTISRDNSKNTLYLQMNSVRVEDTAVYYCARGEGWELPFDYWGQGALVTVSS
VL: QSALTQPPSASGSPGQSVTISCTGTSSDVGGNKYVSWYQQHPGKAPKLIIYEVSKRPSGVPDRFSGSKSGNTASLTVSGLQAEDEADYHCSSYAGSNNLVFGGGTKLTVL
notes: also called candidate antibody molecule P3-11
- EC50: 0.0226 nM

B4: P15-16 (antibody, V domains shown)
VH: QVQLVESGGGLVQPGRSLTLSCAASGFTFDDYAMHWVRQAPGKGLEWVSGISWNSGTIDYADSVKGRFTISRDNAKNSLYLQMNSLRAEDTALYYCATLPRERAYSGYDRIFYTIDVWGQGTTVTVSS
VL: not shown
notes: also called candidate antibody molecule P15-16
- EC50: 0.0228 nM

B5: P14-37 (antibody, V domains shown)
VH: EVQLVESGGGLVKPGGSLRLSCAASGFTFSNAWMSWVRQAPGKGLEWVGRIKRNSDGGTTDHAAPVTGRFIISRDDSKNTLYLQMNSLRTEDTAVYYCTTDLDTVVRRVVITDHDAFDIWGQGTMVTVSS
VL: DIQMTQSPSSLSASVGDRVTITCRASQSISSFLNWYQQKAGKAPKLLIYAASSLQSGVPSRFSGSGSGTDFSLTISNLQPEDFATYYCQQSYSTPSITFGQGTRLEIK
notes: also called candidate antibody molecule P14-37
- EC50: 0.0161 nM

B6: P5-22 (antibody, V domains shown)
VH: EVQLVESGGGLVKPGGSLRLSCAASGFTFRDYDIIWIRQAPGKGLEWVSYISRSGSTIYYSDSVRGRFTISRDNAKNSVYLQMNSLRAEDTAVYYCARDFGFEGPRMDVWGQGTTVTVSS
VL: DIQMTQSPSSLSASVGDRVTITCQASQDIKNYLNWYQQKPGKAPKLLIYDASNLETGVPSRFSGSGSGTDFTFTISSLQPEDIATYYCQQFDNLPITFGQGTRLEIK
notes: also called candidate antibody molecule P5-22
- EC50: 0.0226 nM

B7: P10-20 (antibody, V domains shown)
VH: QVQLVESGGGLVKPGGSLRLSCAASGFTFSDYYMSWIRQAPGKGLEWVSYISISSTYTNYADSVKGRFTISRDNAKNSLYLQMNSLRAEDTAVYYCVIAAAGKGHYYYGMDVWGQGTTVTVSS
VL: not shown
notes: also called candidate antibody molecule P10-20
- EC50: 0.0184 nM
